Experimental data reported in publication PMC8716947.

Test system: T1, KguR (MBP-KguR-His6) (Escherichia coli (uropathogenic, CFT073)), ORF:aaa0ecb8
T1 sequence: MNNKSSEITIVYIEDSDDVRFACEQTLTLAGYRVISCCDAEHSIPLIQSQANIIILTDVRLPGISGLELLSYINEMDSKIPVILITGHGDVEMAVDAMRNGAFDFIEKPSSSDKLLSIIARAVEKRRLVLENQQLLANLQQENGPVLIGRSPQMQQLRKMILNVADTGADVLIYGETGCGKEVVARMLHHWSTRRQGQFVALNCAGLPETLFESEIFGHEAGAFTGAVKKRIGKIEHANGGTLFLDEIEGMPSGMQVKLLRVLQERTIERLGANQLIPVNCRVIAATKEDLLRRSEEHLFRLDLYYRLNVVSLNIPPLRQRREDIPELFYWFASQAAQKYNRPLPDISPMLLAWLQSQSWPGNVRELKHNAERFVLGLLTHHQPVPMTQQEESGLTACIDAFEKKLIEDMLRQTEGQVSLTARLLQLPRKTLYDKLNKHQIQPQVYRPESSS
Test: EMSA

With “CATTCATCATCCATTGAATGCATTTATATTTATCATCAGTATATTCCCTGAACAATGTTTGCGAGAACCAAAAGAGTGCCATTGTGTGAATGTGTAAGCAGAATAACCGTGGCAATGTGTGGTTTATCGCACAGGTATTCCAAATGTGATCATGCTCTTTTTATGTGACAAATCCGCAGATAATCCTTCCTTTCCCCCGCGGTTGGCGTTATGGTCAGATGGTT (double strand) [PkguS]” the binding was “binds”.
